Data published in article PMC11676761, “Mining and Characterization of Amylosucrase from Calidithermus terrae for Synthesis of α-Arbutin Using Sucrose” (International Journal of Molecular Sciences, 2024).

Substrate: OC[C@H]1O[C@@](CO)(O[C@H]2O[C@H](CO)[C@@H](O)[C@H](O)[C@H]2O)[C@@H](O)[C@@H]1O
Experiment: DNS assay of released fructose, Lineweaver-Burk
Assay type: biochemical, Calidithermus terrae
Conditions: 42.0 °C

B1: (Calidithermus terrae) (protein)
chain: MFSTPLPAELRPLLERLLVQAESDLSGSDLETFSLRLERYLPDLHAGLAAVYPDVEGLLERLLPVLTAAHRARPAGLKRLDAHRLLAPDWFQRPEMIAYVAYTERFAGTLKGIEERLDYLEELGVRYLHLMPFLKPRPAPHDGGYAVMDYRAVREDLGSMDDLEALTAKLRARGIALCCDLVLNHVAQEHEWAVRARAGEARYQHYFHMFPDRTLPDEYEKTLPEVFPDFAPGNFTFDEASGKWVWTTFNRWQWDLNWANPAVFLEFADLILWLANRGVEVFRLDAIAFIWKRLGTNCQNQPEVHAITQALRAVARVVAPAVLFKAEAIVAPDDLIHYLGQGEHFGLVSDTAYHNSLMVQIWSSLASRDVRLMSEALRRFPVKPTNTAWNTYLRCHDDIGWAIADDDAARVGLSGEAHRRFLSDYYSGRFPTSPSRGLVFQENPRTGDRRISGSGASLAGLEQALEQNDPRQVHLSLERLLLGHAVVLGFGGIPLLYMGDELALLNDYSYLEEPEHAEDNRWVHRPHMDWDKAARAKADPASTEGRMYHGLLHLIRVRRATPHFHAAIEAQILEPRNPHVFGYVRRHPLGNLVALYNFSEEVQYYPAEVLWQQGLSLPHDRIGGQLVPIERHLVRLEPYARLWITDEV
  Km: 89.39 mM
  kcat: 86.3995 s⁻¹
